Target: dog street rabies virus DRV-4
Experiment: cell-based or functional assay

B1: plant-derived human rabies monoclonal antibody MAb^P (rabies human MAb S057 expressed in transgenic (antibody, V domains shown)
VH: QVQLVQSGAEVKKPGSSVKVSCKASGGTFNRYTVNWVRQAPGQGLEWMGGIIPIFGTANYAQRFQGRLTITADESTSTAYMELSSLRSDDTAVYFCARENLDNSGTYYYFSGWFDPWGQGTLVTVSS
VL: QSALTQPRSVSGSPGQSVTISCTGTSSDIGGYNFVSWYQQHPGKAPKLMIYDATKRPSGVPDRFSGSKSGNTASLTISGLQAEDEADYYCCSYAGDYTPGVVFGGGTKLTVLG
Virus neutralizing antibody (VNA) titer, RFFIT: 81 IU/ml

Reference: patent publication US20060134099A1
